{"source": "patent US6682898B2", "about": "“High-throughput screening assays for modulators of STAT4 activity” (Tularik Inc., priority 1998, dated 2004)", "molecules": {"B1": {"name": "interferon-γ receptor-derived peptide sequence GY^PDKPHVL (peptide)", "peptide": "G[pY]DKPHVL"}, "B2": {"name": "SFGY*DKPHVL (peptide)", "peptide": "SFG[pY]DKPHVL"}}, "key": {"STAT6": {"target": "T1, STAT6 (Homo sapiens, UniProt P42226)", "T1 sequence (P42226 1-847)": "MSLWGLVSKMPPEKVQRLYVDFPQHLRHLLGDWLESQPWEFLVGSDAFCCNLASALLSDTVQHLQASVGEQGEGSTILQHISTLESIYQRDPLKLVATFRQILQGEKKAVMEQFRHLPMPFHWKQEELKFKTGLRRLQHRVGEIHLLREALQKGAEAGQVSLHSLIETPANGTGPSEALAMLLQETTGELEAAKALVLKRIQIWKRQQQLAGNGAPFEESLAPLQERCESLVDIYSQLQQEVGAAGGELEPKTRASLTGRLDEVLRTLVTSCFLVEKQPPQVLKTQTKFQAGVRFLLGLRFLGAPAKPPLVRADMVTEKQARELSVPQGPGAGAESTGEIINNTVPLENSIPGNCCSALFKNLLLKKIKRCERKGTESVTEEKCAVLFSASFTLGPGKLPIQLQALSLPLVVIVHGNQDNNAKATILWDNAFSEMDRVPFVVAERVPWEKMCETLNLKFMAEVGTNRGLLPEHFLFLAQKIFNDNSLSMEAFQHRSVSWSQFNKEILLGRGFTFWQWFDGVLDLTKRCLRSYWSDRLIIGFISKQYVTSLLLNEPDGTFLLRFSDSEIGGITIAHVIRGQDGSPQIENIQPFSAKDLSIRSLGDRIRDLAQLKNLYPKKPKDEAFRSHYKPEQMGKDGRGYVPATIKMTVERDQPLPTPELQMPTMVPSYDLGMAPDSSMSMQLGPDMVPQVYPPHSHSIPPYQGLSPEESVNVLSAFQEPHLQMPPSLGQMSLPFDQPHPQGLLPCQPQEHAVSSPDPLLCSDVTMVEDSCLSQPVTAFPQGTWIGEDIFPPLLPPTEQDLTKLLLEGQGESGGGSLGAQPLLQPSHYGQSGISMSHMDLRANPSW", "assay": "SH2 domain protein binding assay, STAT6", "parameters": "key: +++ = high affinity binding", "source_text": "(§1) This Example describes binding assays for various proteins that contain SH2 domains."}, "Src": {"target": "Src (Homo sapiens, UniProt P12931)", "assay": "SH2 domain protein binding assay, Src", "parameters": "key: +++ = high affinity binding", "source_text": "as §1"}, "PLCγ": {"tested_on": "PLCγ", "assay": "SH2 domain protein binding assay, PLCγ", "parameters": "key: +++ = high affinity binding", "source_text": "as §1"}, "Ras-GAP": {"target": "T2, Ras-GAP (Homo sapiens, UniProt P20936)", "T2 sequence (P20936 1-1047)": "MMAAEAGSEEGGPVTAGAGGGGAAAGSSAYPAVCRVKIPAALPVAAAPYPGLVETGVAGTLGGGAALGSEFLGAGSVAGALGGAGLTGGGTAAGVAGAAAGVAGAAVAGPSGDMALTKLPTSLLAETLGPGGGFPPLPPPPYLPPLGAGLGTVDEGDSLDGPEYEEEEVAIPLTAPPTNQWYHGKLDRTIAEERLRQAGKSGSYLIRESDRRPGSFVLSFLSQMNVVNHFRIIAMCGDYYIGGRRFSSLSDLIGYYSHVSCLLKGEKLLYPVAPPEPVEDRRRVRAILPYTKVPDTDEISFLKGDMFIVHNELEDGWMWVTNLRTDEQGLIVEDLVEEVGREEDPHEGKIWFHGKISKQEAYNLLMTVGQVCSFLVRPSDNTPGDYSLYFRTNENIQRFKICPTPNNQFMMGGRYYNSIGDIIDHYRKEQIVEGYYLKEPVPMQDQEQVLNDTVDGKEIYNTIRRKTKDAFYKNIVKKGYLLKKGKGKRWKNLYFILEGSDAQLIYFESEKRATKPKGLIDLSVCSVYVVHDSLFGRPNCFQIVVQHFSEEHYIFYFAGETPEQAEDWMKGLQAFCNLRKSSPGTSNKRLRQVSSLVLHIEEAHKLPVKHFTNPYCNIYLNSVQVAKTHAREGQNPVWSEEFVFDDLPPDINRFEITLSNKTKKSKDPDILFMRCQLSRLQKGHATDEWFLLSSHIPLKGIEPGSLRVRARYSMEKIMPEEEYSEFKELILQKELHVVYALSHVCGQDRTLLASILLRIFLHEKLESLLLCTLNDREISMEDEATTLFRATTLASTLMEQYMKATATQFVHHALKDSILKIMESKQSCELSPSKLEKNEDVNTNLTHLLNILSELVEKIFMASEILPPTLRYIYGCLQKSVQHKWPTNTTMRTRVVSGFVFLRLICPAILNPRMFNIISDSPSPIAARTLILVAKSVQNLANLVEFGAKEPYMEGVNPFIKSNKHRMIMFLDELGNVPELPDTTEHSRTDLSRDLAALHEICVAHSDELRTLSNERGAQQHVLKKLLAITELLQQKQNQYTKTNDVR", "assay": "SH2 domain protein binding assay, Ras-GAP", "parameters": "key: +++ = high affinity binding", "source_text": "as §1"}, "P85-PI3K": {"target": "P85-PI3K (Homo sapiens, UniProt P27986)", "sequence (P27986 whole entry, the tested form may be a part)": "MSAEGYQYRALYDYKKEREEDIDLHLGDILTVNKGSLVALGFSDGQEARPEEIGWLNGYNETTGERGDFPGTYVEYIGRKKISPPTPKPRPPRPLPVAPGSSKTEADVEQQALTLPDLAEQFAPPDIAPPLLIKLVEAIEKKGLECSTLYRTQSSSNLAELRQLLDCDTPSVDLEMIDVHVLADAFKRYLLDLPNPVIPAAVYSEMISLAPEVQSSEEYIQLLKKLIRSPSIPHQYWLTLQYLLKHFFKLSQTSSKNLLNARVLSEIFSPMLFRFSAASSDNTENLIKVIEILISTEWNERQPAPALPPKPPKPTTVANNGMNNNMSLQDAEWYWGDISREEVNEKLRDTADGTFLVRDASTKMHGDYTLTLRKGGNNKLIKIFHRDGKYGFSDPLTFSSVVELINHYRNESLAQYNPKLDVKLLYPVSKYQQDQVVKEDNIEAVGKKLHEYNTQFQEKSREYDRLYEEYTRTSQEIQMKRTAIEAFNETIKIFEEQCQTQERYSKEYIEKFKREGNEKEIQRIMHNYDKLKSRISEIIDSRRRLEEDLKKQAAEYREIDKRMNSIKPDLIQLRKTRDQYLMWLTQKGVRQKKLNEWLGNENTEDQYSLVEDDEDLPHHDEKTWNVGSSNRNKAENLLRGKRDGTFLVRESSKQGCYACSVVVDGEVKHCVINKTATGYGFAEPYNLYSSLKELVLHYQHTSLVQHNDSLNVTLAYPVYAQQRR", "assay": "SH2 domain protein binding assay, P85-PI3K", "parameters": "key: +++ = high affinity binding", "source_text": "as §1"}, "Syp": {"target": "T3, Syp (Homo sapiens, UniProt Q06124)", "T3 sequence (Q06124 1-593)": "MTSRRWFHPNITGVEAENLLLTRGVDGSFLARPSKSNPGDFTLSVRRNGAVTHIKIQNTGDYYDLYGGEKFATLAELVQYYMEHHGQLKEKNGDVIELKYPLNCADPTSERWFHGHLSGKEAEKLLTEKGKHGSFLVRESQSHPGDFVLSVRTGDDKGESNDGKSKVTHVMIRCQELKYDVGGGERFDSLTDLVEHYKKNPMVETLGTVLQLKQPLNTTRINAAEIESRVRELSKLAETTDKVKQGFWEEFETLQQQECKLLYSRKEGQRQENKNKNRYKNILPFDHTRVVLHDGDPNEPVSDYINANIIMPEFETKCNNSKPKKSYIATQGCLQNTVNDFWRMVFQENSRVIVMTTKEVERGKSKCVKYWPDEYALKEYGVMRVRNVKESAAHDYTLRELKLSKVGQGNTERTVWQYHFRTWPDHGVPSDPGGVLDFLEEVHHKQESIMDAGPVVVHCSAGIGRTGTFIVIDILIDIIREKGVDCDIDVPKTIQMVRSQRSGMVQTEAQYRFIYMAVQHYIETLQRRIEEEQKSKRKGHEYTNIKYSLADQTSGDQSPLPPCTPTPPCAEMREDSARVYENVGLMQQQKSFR", "assay": "SH2 domain protein binding assay, Syp", "parameters": "key: +++ = high affinity binding", "source_text": "as §1"}, "STAT1 protein [1]": {"target": "T4, STAT1 protein (UniProt P42224 1-750, limits assumed)", "T4 sequence (looked up)": "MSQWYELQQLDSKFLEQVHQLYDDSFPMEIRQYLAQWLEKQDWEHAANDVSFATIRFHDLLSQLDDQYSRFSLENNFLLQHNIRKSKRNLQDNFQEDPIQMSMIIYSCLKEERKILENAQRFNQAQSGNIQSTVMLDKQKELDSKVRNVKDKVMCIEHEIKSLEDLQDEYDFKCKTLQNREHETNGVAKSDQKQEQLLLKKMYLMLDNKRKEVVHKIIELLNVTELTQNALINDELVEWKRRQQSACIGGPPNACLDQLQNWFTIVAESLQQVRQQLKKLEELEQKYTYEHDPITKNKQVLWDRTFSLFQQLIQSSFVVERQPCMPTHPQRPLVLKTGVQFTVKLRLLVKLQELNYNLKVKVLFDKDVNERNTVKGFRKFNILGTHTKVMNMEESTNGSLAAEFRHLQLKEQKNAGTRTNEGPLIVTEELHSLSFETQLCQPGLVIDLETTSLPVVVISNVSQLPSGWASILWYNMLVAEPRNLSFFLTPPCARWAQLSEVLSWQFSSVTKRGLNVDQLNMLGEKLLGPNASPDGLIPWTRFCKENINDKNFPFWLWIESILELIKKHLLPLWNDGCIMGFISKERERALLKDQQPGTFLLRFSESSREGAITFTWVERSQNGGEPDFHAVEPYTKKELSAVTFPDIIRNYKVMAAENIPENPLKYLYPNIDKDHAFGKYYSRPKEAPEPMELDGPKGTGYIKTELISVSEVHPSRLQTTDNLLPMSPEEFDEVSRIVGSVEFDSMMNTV", "assay": "method not stated; told of the SH2 domain of STAT1 at the start of Example 1"}, "STAT1 protein [2]": {"target": "T4, STAT1 protein", "assay": "concentration at 50% binding of the STAT protein to the phosphotyrosine peptide (Example 4)"}, "STAT4": {"target": "T5, STAT4 (UniProt Q14765 1-748, limits assumed)", "T5 construct": "also called STAT4 polypeptide", "T5 sequence (looked up)": "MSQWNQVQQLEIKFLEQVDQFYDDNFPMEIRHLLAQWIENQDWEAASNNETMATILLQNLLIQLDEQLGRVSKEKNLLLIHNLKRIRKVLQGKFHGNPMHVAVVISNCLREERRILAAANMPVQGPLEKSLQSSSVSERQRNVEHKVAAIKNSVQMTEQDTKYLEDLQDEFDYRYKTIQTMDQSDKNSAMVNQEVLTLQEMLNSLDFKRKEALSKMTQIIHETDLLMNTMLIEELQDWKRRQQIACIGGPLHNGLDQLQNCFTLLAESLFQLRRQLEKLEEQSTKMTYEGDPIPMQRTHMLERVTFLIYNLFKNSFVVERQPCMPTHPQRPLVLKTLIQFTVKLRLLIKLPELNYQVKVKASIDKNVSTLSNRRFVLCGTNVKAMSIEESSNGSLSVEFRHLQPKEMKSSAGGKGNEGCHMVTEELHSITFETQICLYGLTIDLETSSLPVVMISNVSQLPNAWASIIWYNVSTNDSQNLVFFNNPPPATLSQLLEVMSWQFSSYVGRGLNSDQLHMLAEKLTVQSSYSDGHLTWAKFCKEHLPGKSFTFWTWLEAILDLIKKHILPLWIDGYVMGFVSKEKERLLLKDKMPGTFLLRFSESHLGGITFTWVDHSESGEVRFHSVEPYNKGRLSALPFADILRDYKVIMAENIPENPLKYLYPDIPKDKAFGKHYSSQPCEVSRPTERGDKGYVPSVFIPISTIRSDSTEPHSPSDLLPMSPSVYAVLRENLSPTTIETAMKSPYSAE", "assay": "concentration at 50% binding of the STAT protein to the phosphotyrosine peptide (Example 4)"}}, "note": "Non-standard residues stand in square brackets, D forms with d. No end group written: not given here. pY = N[C@@H](Cc1ccc(OP(=O)(O)O)cc1)C(=O)O"}
{"molecule": "GYKPFQDLI (G[pY]KPFQDLI) [phosphotyrosine-containing peptide ligand, Y is phosphotyrosine]", "values": [{"measurement": "binding to STAT6", "setting": "STAT6", "value": "+++"}]}
{"molecule": "YEEI: phosphotyrosine-containing peptide ligand", "values": [{"measurement": "binding to Src", "setting": "Src", "value": "+++"}]}
{"molecule": "YITPLP: phosphotyrosine-containing peptide ligand ([pY]ITPLP)", "values": [{"measurement": "binding to PLCγ", "setting": "PLCγ", "value": "+++"}]}
{"molecule": "YMAP: phosphotyrosine-containing peptide ligand ([pY]MAP)", "values": [{"measurement": "binding to Ras-GAP", "setting": "Ras-GAP", "value": "+++"}]}
{"molecule": "YMDM: phosphotyrosine-containing peptide ligand ([pY]MDM)", "values": [{"measurement": "binding to P85-PI3K", "setting": "P85-PI3K", "value": "+++"}]}
{"molecule": "YMNM: phosphotyrosine-containing peptide ligand ([pY]MNM)", "values": [{"measurement": "binding to P85-PI3K", "setting": "P85-PI3K", "value": "+++"}]}
{"molecule": "YTAVQP: phosphotyrosine-containing peptide ligand ([pY]TAVQP)", "values": [{"measurement": "binding to Syp", "setting": "Syp", "value": "+++"}]}
{"molecule": "B1", "values": [{"measurement": "Kd", "setting": "STAT1 protein [1]", "value": "~120", "unit": "nM"}]}
{"molecule": "B2", "values": [{"measurement": "IC50", "setting": "STAT1 protein [2]", "value": 600, "unit": "nM"}, {"measurement": "IC50", "setting": "STAT4", "value": 10000, "unit": "nM"}]}
